Results: patent publication US20250163127A1 (published 2025)

T1: human CD86 (human)
T1 chain: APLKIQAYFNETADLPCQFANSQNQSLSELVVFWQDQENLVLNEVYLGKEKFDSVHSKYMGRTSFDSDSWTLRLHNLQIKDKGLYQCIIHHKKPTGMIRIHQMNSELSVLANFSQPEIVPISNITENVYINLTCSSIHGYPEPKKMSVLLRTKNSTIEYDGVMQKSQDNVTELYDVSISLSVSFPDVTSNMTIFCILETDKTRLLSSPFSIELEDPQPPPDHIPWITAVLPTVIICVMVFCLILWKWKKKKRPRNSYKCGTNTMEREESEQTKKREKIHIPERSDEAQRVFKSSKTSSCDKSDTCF


Columns and labels:
human CD86 = target: T1, human CD86; assay: cell-based or functional assay
PD-1 = PD-1 (human, UniProt Q15116); assay: cell-based or functional assay
human PD-1 = human PD-1 (human, UniProt Q15116); assay: flow cytometry, Jurkat/IL-2/PD-1 cells
CD2 = CD2 (Homo sapiens (Human), UniProt P06729); assay: flow cytometry, CHO-CD2 cells

Binder | 100 nM IFN-gamma (pg/mL), SEB assay (human CD86) [pg/mL] | 100 nM IFN-gamma (pg/mL), SEB assay (PD-1) [pg/mL] | EC50 (human PD-1) [nM] | EC50 (CD2) [nM]
CTLA-4 3037-Fc-PD-L1 303 (SEQ ID NO 3670) (Fc fusion) KAMHVAQPAVVLASSRGIASFVCEYASPWKATEVRVTVLRQADSQVTEVCAATYMMGSELTFPDDSICTGTSSGNQVNLTIRGLRAMDTGLYICKVEQMYPPPYLLGIGNGTQIYVIDPEPCPDSDGSGGGGSEPKSSDKTHTCPPCPAPEAEGAPSVFLFPPKPKDTLMISRTPEVTCVVVDVSHEDPEVKFNWYVDGVEVHNAKTKPREEQYNSTYRVVSVLTVLHQDWLNGKEYKCKVSNKALPAPIEKTISKAKGQPREPQVYTLPPSRDELTKNQVSLTCLVKGFYPSDIAVEWESNGQPENNYKTTPPVLDSDGSFFLYSKLTVDKSRWQQGNVFSCSVMHEALHNHYTQKSLSLSPGGGGGSGGGGSGGGGSFTVTVPKDLYVVEYGSNMTIECKFPVEKQLDLAALIVYWEMEGKDIIQFVHGEEDQKAQHSSYRQRARLLKDQLSLGNAALQITDVKLQDAGVYRCMISYGGGADYKRITVKVNA | 1570 | 1570 | – | –
PD-L1 303-PD-L1 303-CD58 3650-CD58 3650 (other) FTVTVPKDLYVVEYGSNMTIECKFPVEKQLDLAALIVYWEMEGKDIIQFVHGEEDQKAQHSSYRQRARLLKDQLSLGNAALQITDVKLQDAGVYRCMISYGGGADYKRITVKVNAGGGGSGGGGSGGGGSFTVTVPKDLYVVEYGSNMTIECKFPVEKQLDLAALIVYWEMEGKDIIQFVHGEEDQKAQHSSYRQRARLLKDQLSLGNAALQITDVKLQDAGVYRCMISYGGGADYKRITVKVNAGGGGSGGGGSGGGGSSQQIYGVVYGNVTFHVPSNVPLKEVLWKKQKDKVAELENSEFRAFSSFKNRVYLDTVSGSLTIYNLTSSDEDEYEMESPNITDTMKFFLYVLESGSGGSGGGGSGGGGSSQQIYGVVYGNVTFHVPSNVPLKEVLWKKQKDKVAELENSEFRAFSSFKNRVYLDTVSGSLTIYNLTSSDEDEYEMESPNITDTMKFFLYVLESGSGGGGSDYKDDDDKHHHHHH | – | – | 2 | 13.7
CTLA-4 3037-PD-L1 303-Fc (SEQ ID NO 3666) (Fc fusion) KAMHVAQPAVVLASSRGIASFVCEYASPWKATEVRVTVLRQADSQVTEVCAATYMMGSELTFPDDSICTGTSSGNQVNLTIRGLRAMDTGLYICKVEQMYPPPYLLGIGNGTQIYVIDPEPCPDSDGSGGSGGGGSGGGGSFTVTVPKDLYVVEYGSNMTIECKFPVEKQLDLAALIVYWEMEGKDIIQFVHGEEDQKAQHSSYRQRARLLKDQLSLGNAALQITDVKLQDAGVYRCMISYGGGADYKRITVKVNAGGGGSGSGGGGSEPKSSDKTHTCPPCPAPEAEGAPSVFLFPPKPKDTLMISRTPEVTCVVVDVSHEDPEVKFNWYVDGVEVHNAKTKPREEQYNSTYRVVSVLTVLHQDWLNGKEYKCKVSNKALPAPIEKTISKAKGQPREPQVYTLPPSRDELTKNQVSLTCLVKGFYPSDIAVEWESNGQPENNYKTTPPVLDSDGSFFLYSKLTVDKSRWQQGNVFSCSVMHEALHNHYTQKSLSLSPG | 2050 | 2050 | – | –
CTLA-4 3060-PD-L1 303-Fc (Fc fusion) KAMHVAQPAVVFASSHGIASFVCEYASPWKATEVRVTVLRQADSQVTEVCAATYMTGNELTFLDDSICTGTSSGNQVNLTIQGLRAMDTGLYICKVEQMYPPPYLLGIGNGTQIYVIDPEPCPDSDGSGGSGGGGSGGGGSFTVTVPKDLYVVEYGSNMTIECKFPVEKQLDLAALIVYWEMEGKDIIQFVHGEEDQKAQHSSYRQRARLLKDQLSLGNAALQITDVKLQDAGVYRCMISYGGGADYKRITVKVNAGGGGSGSGGGGSEPKSSDKTHTCPPCPAPEAEGAPSVFLFPPKPKDTLMISRTPEVTCVVVDVSHEDPEVKFNWYVDGVEVHNAKTKPREEQYNSTYRVVSVLTVLHQDWLNGKEYKCKVSNKALPAPIEKTISKAKGQPREPQVYTLPPSRDELTKNQVSLTCLVKGFYPSDIAVEWESNGQPENNYKTTPPVLDSDGSFFLYSKLTVDKSRWQQGNVFSCSVMHEALHNHYTQKSLSLSPG | 3790 | 3790 | – | –
CTLA4 3037-Fc-PD-L1 303 (SEQ ID NO 3672) (Fc fusion) KAMHVAQPAVVLASSRGIASFVCEYASPWKATEVRVTVLRQADSQVTEVCAATYMMGSELTFPDDSICTGTSSGNQVNLTIRGLRAMDTGLYICKVEQMYPPPYLLGIGNGTQIYVIDPEPCPDSDGSGGGGSEPKSSDKTHTCPPCPAPEAEGAPSVFLFPPKPKDTLMISRTPEVTCVVVDVSHEDPEVKFNWYVDGVEVHNAKTKPREEQYNSTYRVVSVLTVLHQDWLNGKEYKCKVSNKALPAPIEKTISKAKGQPREPQVYTLPPSRDELTKNQVSLTCLVKGFYPSDIAVEWESNGQPENNYKTTPPVLDSDGSFFLYSKLTVDKSRWQQGNVFSCSVMHEALHNHYTQKSLSLSPGGGGGSGGGGSGGGGSAFTVTVPKDLYVVEYGSNMTIECKFPVEKQLDLAALIVYWEMEGKDIIQFVHGEEDQKAQHSSYRQRARLLKDQLSLGNAALQITDVKLQDAGVYRCMISYGGGADYKRITVKVNA | 2070 | 2070 | – | –

Next, values leading:

100 nM IFN-gamma (pg/mL), SEB assay (human CD86) [pg/mL] | 100 nM IFN-gamma (pg/mL), SEB assay (PD-1) [pg/mL] | EC50 (human PD-1) [nM] | EC50 (CD2) [nM] | Binder
807 | – | – | – | CTLA-4 3037-Fc (Fc fusion) KAMHVAQPAVVLASSRGIASFVCEYASPWKATEVRVTVLRQADSQVTEVCAATYMMGSELTFPDDSICTGTSSGNQVNLTIRGLRAMDTGLYICKVEQMYPPPYLLGIGNGTQIYVIDPEPCPDSDGSGGGGSEPKSSDKTHTCPPCPAPEAEGAPSVFLFPPKPKDTLMISRTPEVTCVVVDVSHEDPEVKFNWYVDGVEVHNAKTKPREEQYNSTYRVVSVLTVLHQDWLNGKEYKCKVSNKALPAPIEKTISKAKGQPREPQVYTLPPSRDELTKNQVSLTCLVKGFYPSDIAVEWESNGQPENNYKTTPPVLDSDGSFFLYSKLTVDKSRWQQGNVFSCSVMHEALHNHYTQKSLSLSPG
– | – | 4.6 | 2 | CD58 3650-PD-L1 303-Fc (Fc fusion) SQQIYGVVYGNVTFHVPSNVPLKEVLWKKQKDKVAELENSEFRAFSSFKNRVYLDTVSGSLTIYNLTSSDEDEYEMESPNITDTMKFFLYVLESGGGGSGGGGSGGGGSFTVTVPKDLYVVEYGSNMTIECKFPVEKQLDLAALIVYWEMEGKDIIQFVHGEEDQKAQHSSYRQRARLLKDQLSLGNAALQITDVKLQDAGVYRCMISYGGGADYKRITVKVNAGSGGGGSEPKSSDKTHTCPPCPAPEAEGAPSVFLFPPKPKDTLMISRTPEVTCVVVDVSHEDPEVKFNWYVDGVEVHNAKTKPREEQYNSTYRVVSVLTVLHQDWLNGKEYKCKVSNKALPAPIEKTISKAKGQPREPQVYTLPPSRDELTKNQVSLTCLVKGFYPSDIAVEWESNGQPENNYKTTPPVLDSDGSFFLYSKLTVDKSRWQQGNVFSCSVMHEALHNHYTQKSLSLSPG
– | – | 1.2 | 0.661 | PD-L1 303-CD58 3650-Fc (Fc fusion) FTVTVPKDLYVVEYGSNMTIECKFPVEKQLDLAALIVYWEMEGKDIIQFVHGEEDQKAQHSSYRQRARLLKDQLSLGNAALQITDVKLQDAGVYRCMISYGGGADYKRITVKVNAGGGGSGGGGSGGGGSSQQIYGVVYGNVTFHVPSNVPLKEVLWKKQKDKVAELENSEFRAFSSFKNRVYLDTVSGSLTIYNLTSSDEDEYEMESPNITDTMKFFLYVLESGSGGGGSEPKSSDKTHTCPPCPAPEAEGAPSVFLFPPKPKDTLMISRTPEVTCVVVDVSHEDPEVKFNWYVDGVEVHNAKTKPREEQYNSTYRVVSVLTVLHQDWLNGKEYKCKVSNKALPAPIEKTISKAKGQPREPQVYTLPPSRDELTKNQVSLTCLVKGFYPSDIAVEWESNGQPENNYKTTPPVLDSDGSFFLYSKLTVDKSRWQQGNVFSCSVMHEALHNHYTQKSLSLSPG
6100 | 6100 | – | – | PD-L1 303-CTLA-4 3037-Fc (SEQ ID NO 3668) (Fc fusion) FTVTVPKDLYVVEYGSNMTIECKFPVEKQLDLAALIVYWEMEGKDIIQFVHGEEDQKAQHSSYRQRARLLKDQLSLGNAALQITDVKLQDAGVYRCMISYGGGADYKRITVKVNAGSGGSGGGGSGGGGSKAMHVAQPAVVLASSRGIASFVCEYASPWKATEVRVTVLRQADSQVTEVCAATYMMGSELTFPDDSICTGTSSGNQVNLTIRGLRAMDTGLYICKVEQMYPPPYLLGIGNGTQIYVIDPEPCPDSDGGGGSGSGGGGSEPKSSDKTHTCPPCPAPEAEGAPSVFLFPPKPKDTLMISRTPEVTCVVVDVSHEDPEVKFNWYVDGVEVHNAKTKPREEQYNSTYRVVSVLTVLHQDWLNGKEYKCKVSNKALPAPIEKTISKAKGQPREPQVYTLPPSRDELTKNQVSLTCLVKGFYPSDIAVEWESNGQPENNYKTTPPVLDSDGSFFLYSKLTVDKSRWQQGNVFSCSVMHEALHNHYTQKSLSLSPG
4470 | 4470 | – | – | PD-L1 303-CTLA4 3060-Fc (Fc fusion) FTVTVPKDLYVVEYGSNMTIECKFPVEKQLDLAALIVYWEMEGKDIIQFVHGEEDQKAQHSSYRQRARLLKDQLSLGNAALQITDVKLQDAGVYRCMISYGGGADYKRITVKVNAGSGGSGGGGSGGGGSKAMHVAQPAVVFASSHGIASFVCEYASPWKATEVRVTVLRQADSQVTEVCAATYMTGNELTFLDDSICTGTSSGNQVNLTIQGLRAMDTGLYICKVEQMYPPPYLLGIGNGTQIYVIDPEPCPDSDGGGGSGSGGGGSEPKSSDKTHTCPPCPAPEAEGAPSVFLFPPKPKDTLMISRTPEVTCVVVDVSHEDPEVKFNWYVDGVEVHNAKTKPREEQYNSTYRVVSVLTVLHQDWLNGKEYKCKVSNKALPAPIEKTISKAKGQPREPQVYTLPPSRDELTKNQVSLTCLVKGFYPSDIAVEWESNGQPENNYKTTPPVLDSDGSFFLYSKLTVDKSRWQQGNVFSCSVMHEALHNHYTQKSLSLSPG
